Key:
[1] = molecular target: purified YibK protein with R146C (21.6 kDa monomer) (UniProt P44868); assay: SDS-PAGE without reducing agent and Western blot (disulfide-linked dimer); purified YibK protein, no reducing agent
two-hybrid = molecular target: the molecule itself; assay: two-hybrid

| Molecule | stoichiometry N [1] | fold P_cadBA transcriptional activation over cytoplasmic YibK–SH2 (two-hybrid) |
| --- | --- | --- |
| purified YibK protein with R146C (21.6 kDa monomer) (from UniProt P44868) (natural protein) | 2 |  |
| wild-type YibK–SH2 (expressed as SS–YibK–SH2) (natural protein, also called WT; not shown: SH2 domain of ABL1 kinase, C-terminal, kept) MLDIVLYEPEIPQNTGNIIRLCANTGFRLHLIEPLGFTWDDKRLRRSGLDYHEFAEIKRHKTFEAFLESEKPKRLFALTTKGCPAHSQVKFKLGDYLMFGPETRGIPMSILNEMPMEQKIRIPMTANSRSMNLSNSVAVTVYEAWRQLGYKGAVNLPEVK |  | 66 fold |
